Laboratory results as given in US10654893B2, “Self-assembling peptide compositions” (3-D MATRIX, LTD., priority 2014, dated 2020).

Experiments:
[1] = Congo Red assay of gel formation in PBS solution (pH 7.4); type: physicochemical; details: 0.5%, 1.0%, 1.5%, 2.0% and 2.5%
Procedure: A Congo Red assay was performed to determine gel formation of peptide compositions in a PBS (Phosphate buffered saline) solution (pH 7.4), as shown in FIG. 1. 100 μl of each gel at selected concentrations were plated on a glass slide. After 30 seconds, 500 μl of 1% Congo Red solution was added around and on top of each of the composition aliquots and then the excess Congo Red solution was wiped off prior to examination. RADA16 (SEQ ID NO:1), IEIK13 (SEQ ID NO:3), and KLD12 (SEQ ID NO:2) were plated at selected concentrations of 0.5%, 1.0%, 1.5%, 2.0% and 2.5%. Visual observation determined the success or failure of gelation at each concentration.

[2] = pH adjustment with 0.1 N NaOH, pH and visual observation; type: physicochemical; details: for Appearance of composition: 2.5%
Procedure: In this Example, pH levels of peptide compositions was adjusted, for example, by addition of 0.1 N NaOH to 2 mL of a 2.5% peptide composition. pH and appearance of the adjusted compositions were observed. An acidic salt was added if the pH level was higher than the desired level.
With certain compositions, when pH levels of peptide compositions were higher than 3.5 (RADA16 (SEQ ID NO:1) and KLD12 (SEQ ID NO:2)) or 3.7 (IEIK13 (SEQ ID NO:3)), the peptide compositions began phase separation (i.e. becoming cloudy). In some embodiments, provided peptide compositions have a pH within the range of about 3.0 to about 3.7 (particularly for IEIK13 (SEQ ID NO:3)), or about 3.0 to about 3.5 (particularly for RADA16 (SEQ ID NO:1) and/or KLD12 (SEQ ID NO:2)).

[3] = Compositions with 0.9% NaCl at pH 3.4 (combined salt and pH); type: physicochemical
Procedure: IEIK13 (SEQ ID NO:3), KLD12 (SEQ ID NO:2), and RADA16 (SEQ ID NO:1) were dissolved in salt buffer (e.g. NaCl) and kept at elevated pH level adjusted with alkali salt buffer (e.g. NaOH). The compositions had their pH levels about 2.5-4.0 and lower ionic strength than their critical points. With respect to RADA16 (SEQ ID NO:1), KLD12 (SEQ ID NO:2) and IEIK13 (SEQ ID NO:3), peptide compositions were still clear with 0.9% NaCl (i.e. ionic strength of 0.15 M) at pH 3.4 (adjusted with NaOH). Rheological properties of RADA16 (SEQ ID NO:1) with 0.9% NaCl at pH 3.4 were stiffer than those of RADA16 control (i.e. no ionic strength and pH elevation) and RADA16 (SEQ ID NO:1) with 0.9% NaCl (no pH elevation).

[4] = Mixing of RADA16 with DMEM and centrifugation; type: physicochemical
Procedure: When the mixture was centrifuged at 2500 rpm for 5 min, phase separation of cloudy RADA16 (SEQ ID NO:1) precipitated from the mixture. In this case, the peptide assemblies (i.e. initially were formed via hydrophobic interactions) were likely broken down during the mixing process. Attractive charge-charge interactions were dominant over hydrophobic interactions, which induce formation of random intra- and inter-molecular aggregates. The phase separation is illustrated in FIG. 7.

[5] = Stiffness and reversibility of RADA16 compositions with salts; type: physicochemical
Procedure: FIGS. 41A-41D depict the protocol used to follow peptide dissolution and to assess effects of particular anions and/or cations, and/or their concentration, on certain RADA16 (SEQ ID NO:1) compositions. As shown, peptide powder in a vial was dissolved in deionized water with vortexing and sonication. The particular peptide composition utilized in this Example was a 1% composition of RADA16 (SEQ ID NO:1) that was mixed at a 1:1 ratio with a 2× salt solution to obtain a final concentration of 0.5% RADA16 (SEQ ID NO:1) and the desired molar concentration of salt.
The protocol depicted in FIGS. 41A-41D was followed to analyze stiffness of peptide compositions containing either 2.5% RADA16 (SEQ ID NO:1) and no added salt or 2.5% RADA16 (SEQ ID NO:1) and 0.125 M CaCl2. Results are shown in FIG. 44, which provides a basic understanding of the viscoelastic properties of the resulting compositions.
The protocol depicted in FIGS. 41A-41D was followed to prepare solutions of 0.5% RADA16 mixed with 0.125, 0.25, or 0.5 M CaCl2 were prepared. The compositions were subjected to mechanical stress through vortexing and sonication, so that their structure was thoroughly disrupted (e.g., randomized). Disrupted compositions were then placed at room temperature for 48 hours to allow self-assembly to take place.

[6] = tested on: C57 BL/6 Mouse Mesenchymal Stem Cells (mMSCs); experiment: Cell viability (cytotoxicity) assay; type: cell-based
Procedure: A cell viability (cytotoxicity) assay was performed to measure the viability of C57 BL/6 Mouse Mesenchymal Stem Cells (mMSCs) with IEIK13 (SEQ ID NO:3), KLD12 (SEQ ID NO:2) and RADA16 (SEQ ID NO:1) compositions as described herein. mMSCs are a frequently used cell line in hydrogel tissue culture systems. […] The final concentration of sucrose was 10%. Cells were washed and re-suspended in 10% sucrose to a final concentration of 5 million cells/ml. Cells were centrifuged and the supernatant was removed. The cells were re-suspended in peptide compositions with 10% sucrose. The protocol was then followed for plating drop cultures and subsequent isolation as described in the PuraMatrix® Guidelines for Use (BD/Corning website). Results are shown in FIGS. 14-16 for RADA16 (SEQ ID NO:1), IEIK13 (SEQ ID NO:3), and KLD12 (SEQ ID NO:2), respectively.

Arg-Ala-Asp-Ala-Arg-Ala-Asp-Ala-Arg-Ala-Asp-Ala-Arg-Ala-Asp-Ala [RADA16]
Gel formation (success or failure of gelation) [1]: gelled at all concentrations | Observation ([2]; 0.1N NaOH 0 μL/mL, Conc. 2.5%, pH 2.2 (RADA16), 1.8 (IEIK13), 2.1 (KLD12)): Clear, thick gel | Observation ([2]; 0.1N NaOH 50 μL/mL, Conc. 2.38%, pH 2.3 (RADA16), 2.1 (IEIK13), 2.4 (KLD12)): Clear, thick gel | Observation ([2]; 0.1N NaOH 100 μL/mL, Conc. 2.27%, pH 2.4 (RADA16), 2.2 (IEIK13), 2.6 (KLD12)): Clear, thick gel | Observation ([2]; 0.1N NaOH 150 μL/mL, Conc. 2.17%, pH 2.7 (RADA16), 2.7 (IEIK13), 2.9 (KLD12)): Clear, thick, stiffer gel | Observation ([2]; 0.1N NaOH 200 μL/mL, Conc. 2.08%, pH 2.9 (RADA16), 3.0 (IEIK13), 3.3 (KLD12)): Clear, thick, stiffer gel | Observation ([2]; 0.1N NaOH 250 μL/mL, Conc. 2.0%, pH 3.2 (RADA16), 3.3 (IEIK13), 4.0 (KLD12)): Clear, thick, stiffer gel | Observation ([2]; 0.1N NaOH 275 μL/mL, Conc. 1.96%, pH 3.4 (RADA16), 3.7 (IEIK13)): Clear, thick, stiffer gel | Observation ([2]; 0.1N NaOH 300 μL/mL, Conc. 1.92%, pH 3.6 (RADA16), 4.0 (IEIK13), 4.7 (KLD12)): Slightly cloudy, brittle gel | Observation ([2]; 0.1N NaOH 350 μL/mL, Conc. 1.85%, pH 4.5 (RADA16), 4.5 (IEIK13), 5.2 (KLD12)): Cloudy, phase-separated | Peptide composition pH ([2]; 0.1N NaOH added in 2.5% composition 0 μL/mL, Conc. 2.5%): 2.2 | Peptide composition pH ([2]; 0.1N NaOH added in 2.5% composition 50 μL/mL, Conc. 2.38%): 2.3 | Peptide composition pH ([2]; 0.1N NaOH added in 2.5% composition 100 μL/mL, Conc. 2.27%): 2.4 | Peptide composition pH ([2]; 0.1N NaOH added in 2.5% composition 150 μL/mL, Conc. 2.17%): 2.7 | Peptide composition pH ([2]; 0.1N NaOH added in 2.5% composition 200 μL/mL, Conc. 2.08%): 2.9 | Peptide composition pH ([2]; 0.1N NaOH added in 2.5% composition 250 μL/mL, Conc. 2.0%): 3.2 | Peptide composition pH ([2]; 0.1N NaOH added in 2.5% composition 275 μL/mL, Conc. 1.96%): 3.4 | Peptide composition pH ([2]; 0.1N NaOH added in 2.5% composition 300 μL/mL, Conc. 1.92%): 3.6 | Peptide composition pH ([2]; 0.1N NaOH added in 2.5% composition 350 μL/mL, Conc. 1.85%): 4.5 | Appearance of composition ([2]; pH about 3.5 (FIG. 12)): clear | Appearance of composition ([2]; pH=3.6 (FIG. 12)): slightly cloudy | Appearance of composition ([2]; pH=4.0 (FIG. 12)): precipitated | Observation ([2]; pH 7.0, NaOH volume and conc. not given): Cloudy, phase-separated | Appearance of composition ([3]; 0.9% NaCl (ionic strength of 0.15 M) at pH 3.4 (adjusted with NaOH)): still clear | Stiffness versus control and versus 0.9% NaCl without pH elevation ([3]; 0.9% NaCl at pH 3.4, 2.5% (FIG. 40)): stiffer | Appearance after mixing with DMEM ([4]; 0.5 mL of DMEM mixed with 0.5 mL of 2% RADA16): cloudy and runny emulsions | Phase behaviour after centrifugation of the DMEM mixture ([4]; centrifuged at 2500 rpm for 5 min): precipitated | Reversibility after mechanical perturbation ([5]; 0.5% RADA16, 0.125 or 0.25 M CaCl2, vortexing and sonication, 48 hours at room temperature): reversibility can be maintained | Stiffness after disruption ([5]; 0.5% RADA16, 0.5 M CaCl2, vortexing and sonication, 48 hours at room temperature): dramatically less stiffness | Stiffness with salt versus no added salt ([5]; 2.5% RADA16 and 0.125 M CaCl2 versus 2.5% RADA16): noticeable increase in stiffness | Cell viability at 0.5% versus 0.25% [6]: significantly higher than that at 0.25%
